Results: publication PMC5979025

Columns and labels:
[1] = biological target: C-reactive protein (pCRP) (Homo sapiens) (UniProt P02741); conditions: cited from earlier work
[2] = biological target: T1, C-reactive protein (pentameric, biotin-labeled) (Homo sapiens), P02741; experiment: ELISA; conditions: pCRP immobilized on hydrophobic surface, biotin-labeled solution pCRP, calcium required; remark: other sources report otherwise
T1 chain: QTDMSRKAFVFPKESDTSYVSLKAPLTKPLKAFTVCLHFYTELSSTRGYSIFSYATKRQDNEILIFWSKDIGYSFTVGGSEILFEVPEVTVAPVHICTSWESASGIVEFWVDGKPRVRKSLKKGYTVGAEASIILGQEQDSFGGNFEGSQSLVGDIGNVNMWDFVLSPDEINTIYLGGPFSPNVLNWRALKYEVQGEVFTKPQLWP

For “C-reactive protein (pCRP) (from UniProt P02741)”, the Kd [1] is given as 20 µM.

B1: C-reactive protein (surface-immobilized intermediate, CRPi), P02741 (protein)
chain: T1 chain
B1 showed a Kd [2] of 0.0015 µM.
